Test results from publication PMC9846250.

Assays:
[1] = molecular target: paramyosin from giant squid (Dosidicus gigas) (giant squid (Dosidicus gigas)); assay: dynamic light scattering; 25°C, 90°, purified paramyosin in PBS pH 7.5 with 0.15, 0.5 and 1 M KCl; two populations by hydrodynamic radius (dimer, aggregates); number fractions calculated from the scattered intensities
[2] = molecular target: paramyosin from giant squid (Dosidicus gigas) (giant squid (Dosidicus gigas)); assay: static light scattering; Debye plot, 25°C, 90°, paramyosin 0.01-0.1 mg/ml in PBS pH 7.5 with 0.15, 0.5 and 1.0 M KCl; apparent Mw; monomers to dimer
[3] = dynamic light scattering; 25°C, 90°, purified paramyosin in PBS pH 7.5 with 0.15, 0.5 and 1 M KCl; two populations by hydrodynamic radius (dimer, aggregates); number fractions calculated from the scattered intensities; details: other: dynamic light scattering

Row | Substance | percent of molecules in dimeric form [1] [%] | stoichiometry N [2] | dimers per aggregate [3]
1 | paramyosin from giant squid (Dosidicus gigas) (natural protein) | > 99 | 2 | –
2 | paramyosin from giant squid (Dosidicus gigas) | – | – | there are ca. 5 dimer paramyosin particles inside an aggregate
